“Also recorded” adds a separate entry of the source. Where a SMILES comes first, the peptide text is derived from it. The star is where a group is joined. Cbz = O=C(OCc1ccccc1)*; CH2F = FC*
Tests used:
B16 melanoma cells [1] = assay: Phototoxicity of TMRM compared with mitochondrial KillerRed in B16 melanoma cells; assay type: cell-based; settings: 100 nM, 3.3 W/cm2 green light
Method: The phototoxicity of mitochondrial KillerRed was compared with the phototoxicity of tetramethylrhodamine (TMRM)—a red fluorescent dye capable of producing ROS which accumulates in mitochondria of living cells. B16 melanoma cells were preincubated with 100 nM TMRM for 20 min at 37° C. and irradiated by 3.3 W/cm2 green light (40× objective, 535-575 nm) for time periods of 10 sec, 1 min, 5 min, and longer. […] Irradiation for 1 min led to cell death within 30-40 min. The effect was similar to that obtained by 15-min irradiation of the KillerRed-expressing cells under the same conditions.

B16 melanoma cells [2] = assay: Light-induced killing of B16 melanoma cells expressing mitochondrially targeted KillerRed; assay type: cell-based; settings: pre-incubated with 10 μM inhibitor, 1.5 hour post illumination
Source text: Mitochondrial localization of a photosensitizer is known to be effective in photodynamic therapy, leading preferentially to apoptotic cell death. To provide for a more pronounced phototoxic effect, KillerRed was targeted to mitochondria by cloning it in frame with a double N-terminal mitochondrial localization signal and the resulting construct was transiently transfected into B16 melanoma cells. Exposure of mitochondrially targeted KillerRed expressing B16 melanoma cells to green light for 15 minutes using lower irradiation intensity (40× objective, 535-575 nm excitation filter, 3.3 W/cm2) led to nearly 100% cell death within 45 min after irradiation (FIG. 8B). If pre-incubated with 10 μM pancaspase inhibitor zVAD-fmk, the cells survived identical irradiation and preserved their native shape within 1.5 hour post illumination. This indicates the apoptotic way of the mitochondrially targeted KillerRed-mediated cell death.

beta-gal [3] = assay: Inhibitory analysis with specific ROS quenchers in the in vitro beta-gal CALI system; assay type: biochemical, E. coli; settings: superoxide dismutase 500 u/ml with catalase 500 u/ml; mannitol 67 mM; sodium azide 20 mM
Method: White and hatched columns show β-gal activity for the intact and irradiated samples, respectively.
The mechanism of the KillerRed-mediated effect was tested using inhibitory analysis. A specific ROS quenchers were added to the in vitro beta-gal CALI system described above (FIG. 6).

[4] = test system: E. coli (XL1-Blue strain); assay: Screening of fluorescent and chromo-proteins for phototoxic effect in E. coli (CFU after white light); assay type: cell-based; settings: for phototoxic effect: E. coli expressing the protein, white light 1 hour, CFU irradiated vs non-irradiated
Source text: Looking for a GFP-like protein, which could be used as an efficient photosensitizer, we screened different proteins for a phototoxic effect in E. coli including: • (1) Anemonia majano fluorescent protein AmCyan (also noted to as FP486, GenBank ID AF168421; Clontech); • (2) Zoanthus sp. fluorescent protein ZsGreen FP506 (also noted to as FP506, GenBank ID AF168422; Clontech); • (3) red fluorescent protein DsRed2 (Clontech); • (4) Anemonia sulcata GFP-like chromoprotein asulCP FP595 (also noted to as FP595, GenBank ID AF246709); • (5) asulCPW94F protein, a mutant of chromoprotein FP595 comprising W94F amino acid substitution; • (6) commercially available red fluorescent protein AsRed2 (Clontech); • (7) Dendronephthya sp. green fluorescent protein dendGFP (GenBank ID AF420591); • (8) Goniopora tenuidens GFP-like chromoprotein, gtenCP (GenBank ID AF383156); • (9) aceGFP (GenBank ID AY233272); • (10) circularly permutated aceGFP (GenBank ID AY233272) variant, cpT1 having nucleotide and amino acid sequences shown in SEQ ID NOS: 5, 6.; • (11) monomeric mutant of dendGFP protein, dendQ4mono, having nucleotide and amino acid sequences shown in SEQ ID NOS: 7, 8.; • (12) EGFP, the most popular Aequorea GFP mutant variant (GenBank ID U55763); • (13) chromoprotein am2CP(PCT/RU03/00474; SEQ ID NOS: 9, 10); • (14) red fluorescent protein KillerRed (JR18IC+)(SEQ ID NOS: 3, 4), developed on the basis of chromoprotein am2CP by random mutagenesis; and • (15) non-colored mutant of FP506 protein, ZsGreenY66A, containing mutation Y66A which eliminates the chromophore, was used as a negative control.
Synthetic genes encoding proteins listed above were cloned into the pQE30 vector and transformed into E. coli (XL1-Blue strain). For each protein tested, protein expressing cells were taken from one E. coli colony, diluted into 1 ml of PBS buffer and divided into two portions. One of them was irradiated with white light (light source Fiber-Light from Dolan-Jenner Industries, Inc) for 1 hour. Then both samples aliquots were sowed to the Petri dishes at different dilutions. The number of growing colonies corresponded to the number of bacteria cells surviving after irradiation (i.e. colony forming units, CFU). The CFU number for the irradiated E. coli portion was compared to non-irradiated one, thus allowing an estimate of the relative phototoxic effect for every of the proteins tested.
Comparing to the wild type chromoprotein anm2CP, KillerRed contains amino acid changes T145N and C161A (corresponding to positions 148 and 165 in Aequorea victoria GFP), which are spatially close to the chromophore and affect fluorescent properties, and a number of folding mutations. […]

[5] = test system: E. coli (XL1-Blue strain); assay: Time course of survival of E. coli expressing fluorescent proteins under white light; assay type: cell-based
Method: To compare the KillerRed phototoxic effect with the effect of DsRed2 fluorescent protein, pQE30 vectors encoding KillerRed, DsRed2 or ZsGreenY66A non-colored protein were prepared as described in Example 1. E. coli (XL1-Blue strain) were transformed with said pQE30 vectors. The cells expressing ZsGreenY66A was used as a negative control. We estimated the percent of cells surviving after bacteria irradiation for 5, 10, 20, 40 and 60 minutes. […] The graph of FIG. 2 indicates the number of colonies, which grew without irradiation and after irradiation for the corresponding period of time.

E. coli = assay: Action spectrum of KillerRed phototoxic effect (green vs blue light); assay type: cell-based
Source text: FIG. 3 illustrates excitation (dotted line) and emission (solid line) spectra for KillerRed protein. Hatched and white rectangles show relative phototoxic effect from irradiation with blue (460-490 nm) and green (540-580 nm) light, respectively. Numbers above the rectangles represent the decrease in the number of viable cells after 10-min irradiation (folds).
Further we roughly checked the action spectrum for KillerRed phototoxic effect (FIG. 3).

293T human kidney cells = assay: Light-induced killing of 293T cells expressing KillerRed in cytoplasm; assay type: cell-based
Source text: For expression in eukaryotic cells, the PCR-amplified Agel-NotI fragments from pQE30 vectors encoding KillerRed and DsRed2 (obtained as described in the Example 1) were PCR amplified and inserted in lieu of the EGFP-coding region in the pEGFP-N1 vector (Clontech).
293T human kidney cells were transiently cotransfected with these vectors and the AcGFP1-C1 vector (Clontech) using Lipofectamine reagent (Invitrogen). The cells of interest were characterized with high expression levels of both green fluorescent protein AcGFP1 and KillerRed (or DsRed2 in a control experiment). Cells were irradiated with intense green light for 10 min (100× objective, 535-575 nm excitation filter, 5.8 W/cm2). Mortality of irradiated KillerRed expressing cells reached 40-60%, depending on protein concentration (FIG. 8A).
At the same time, neighboring cells with a lower KillerRed expression level survived irradiation, presumably due to the lower concentration of the phototoxic agent. […] A Leica confocal inverted microscope TCS SP2 equipped with 125 mW Ar and 1 mW HeNe lasers was used for cell imaging. A LaserCheck (Coherent) power meter was used to measure total power of the excitation light after the microscope objective.

beta-gal [6] = target: beta-gal (Escherichia coli, UniProt P00722, DEL12-42); settings: beta-gal mixed with KillerRed (unfused), E. coli extracts
Sequence of beta-gal (Escherichia coli, UniProt P00722, DEL12-42) (P00722 whole entry, stated change not applied, the tested form may be a part): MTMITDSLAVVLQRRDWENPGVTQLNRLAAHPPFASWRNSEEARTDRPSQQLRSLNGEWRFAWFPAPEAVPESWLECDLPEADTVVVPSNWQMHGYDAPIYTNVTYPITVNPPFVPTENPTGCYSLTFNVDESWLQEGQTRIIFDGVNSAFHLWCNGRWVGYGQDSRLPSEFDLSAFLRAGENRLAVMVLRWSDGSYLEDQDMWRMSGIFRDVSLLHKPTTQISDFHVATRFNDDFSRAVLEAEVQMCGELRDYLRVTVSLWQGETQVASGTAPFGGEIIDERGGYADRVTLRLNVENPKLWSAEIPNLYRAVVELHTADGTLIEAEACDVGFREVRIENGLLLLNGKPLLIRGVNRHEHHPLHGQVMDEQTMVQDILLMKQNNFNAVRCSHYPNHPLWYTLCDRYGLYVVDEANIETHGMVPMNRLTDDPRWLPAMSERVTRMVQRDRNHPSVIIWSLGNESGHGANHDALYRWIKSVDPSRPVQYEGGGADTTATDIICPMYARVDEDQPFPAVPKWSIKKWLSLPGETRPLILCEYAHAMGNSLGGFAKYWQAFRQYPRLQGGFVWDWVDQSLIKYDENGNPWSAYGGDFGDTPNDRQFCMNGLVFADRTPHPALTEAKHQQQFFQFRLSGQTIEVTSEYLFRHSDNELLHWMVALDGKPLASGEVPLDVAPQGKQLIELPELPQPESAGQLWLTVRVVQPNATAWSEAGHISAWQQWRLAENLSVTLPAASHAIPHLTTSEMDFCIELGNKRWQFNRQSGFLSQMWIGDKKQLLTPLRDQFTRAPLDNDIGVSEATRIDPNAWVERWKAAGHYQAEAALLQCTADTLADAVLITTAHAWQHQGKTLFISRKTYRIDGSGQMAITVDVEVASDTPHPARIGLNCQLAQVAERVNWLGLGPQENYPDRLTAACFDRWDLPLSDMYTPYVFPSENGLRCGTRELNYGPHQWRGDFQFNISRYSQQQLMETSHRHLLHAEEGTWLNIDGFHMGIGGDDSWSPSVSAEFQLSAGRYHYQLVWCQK
Sequence of beta-gal (Escherichia coli, UniProt P00722, DEL12-42) (P00722 with tags, fused parts or gaps DEL12-42): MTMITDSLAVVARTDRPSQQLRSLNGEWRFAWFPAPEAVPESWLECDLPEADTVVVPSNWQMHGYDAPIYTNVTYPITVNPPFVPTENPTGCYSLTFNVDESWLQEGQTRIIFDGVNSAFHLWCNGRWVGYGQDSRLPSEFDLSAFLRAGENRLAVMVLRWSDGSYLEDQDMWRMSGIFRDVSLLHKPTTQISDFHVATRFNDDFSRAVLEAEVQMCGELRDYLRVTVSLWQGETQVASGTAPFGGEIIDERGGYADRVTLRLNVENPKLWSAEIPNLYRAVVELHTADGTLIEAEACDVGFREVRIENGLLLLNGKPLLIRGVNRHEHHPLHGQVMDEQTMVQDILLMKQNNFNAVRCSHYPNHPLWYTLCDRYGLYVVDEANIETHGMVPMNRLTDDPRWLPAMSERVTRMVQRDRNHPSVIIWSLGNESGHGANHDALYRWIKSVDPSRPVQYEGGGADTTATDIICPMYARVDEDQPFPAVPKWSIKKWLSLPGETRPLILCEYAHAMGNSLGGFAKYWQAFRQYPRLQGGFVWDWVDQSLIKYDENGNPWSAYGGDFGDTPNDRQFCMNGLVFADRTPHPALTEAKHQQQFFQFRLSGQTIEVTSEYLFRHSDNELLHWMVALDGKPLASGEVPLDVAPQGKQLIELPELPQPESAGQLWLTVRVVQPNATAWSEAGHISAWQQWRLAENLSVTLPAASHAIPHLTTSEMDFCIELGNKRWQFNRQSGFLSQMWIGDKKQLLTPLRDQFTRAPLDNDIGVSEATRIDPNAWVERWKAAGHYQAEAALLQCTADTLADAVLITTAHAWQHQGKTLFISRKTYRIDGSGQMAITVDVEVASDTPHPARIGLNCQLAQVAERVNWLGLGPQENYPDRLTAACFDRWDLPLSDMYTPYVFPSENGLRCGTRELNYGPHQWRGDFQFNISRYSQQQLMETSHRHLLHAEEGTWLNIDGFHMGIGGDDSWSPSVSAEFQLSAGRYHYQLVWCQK
Method: O-nitrophenyl (ONP) absorption after 15 min o-nitrophenyl-D galactoside (ONPG) incubation is proportional to β-gal enzymatic activity.
Aliquots were either incubated under white light (1 W/cm2, light source Fiber-Light from Dolan-Jenner Industries, Inc) or kept in the dark. The entire volume of the tube was illuminated. Beta-gal activity was assayed in light-illuminated and “dark” aliquots calorimetrically.

[7] = target: T1, pleckstrin homology (PH) domain of phospholipase C delta-1 (PLC delta-1) (Homo sapiens, UniProt P51178); assay: KillerRed-mediated CALI of PH domain in mammalian cells (membrane to cytoplasm translocation); settings: KillerRed expressed separately from the PH domain, in membrane or cytosol
T1 sequence (P51178 1-224): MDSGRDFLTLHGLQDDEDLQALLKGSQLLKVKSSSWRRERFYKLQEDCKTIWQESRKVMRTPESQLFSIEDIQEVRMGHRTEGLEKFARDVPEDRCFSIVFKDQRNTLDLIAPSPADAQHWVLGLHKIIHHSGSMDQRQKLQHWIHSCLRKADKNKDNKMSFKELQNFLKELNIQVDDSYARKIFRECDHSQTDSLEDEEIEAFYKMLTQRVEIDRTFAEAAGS
Source text: KillerRed-mediated CALI was further tested in mammalian cells (FIG. 7). The pleckstrin homology (PH) domain of phospholipase C delta-1 (PLC delta-1) was used as a model protein. The PH domain locates to the inner leaf of plasma membrane due to its high affinity for membrane phospholipids. It has been shown that in case of direct protein inactivation by dye-generated ROS, the PH domain will lose its membrane affinity and become evenly distributed throughout the cell volume.
A coding sequence for the first 224 amino acids of PLC delta-1 comprising the N-terminal PH-domain was amplified from Fetus Brain cDNA (Clontech) with specific PCR primers. […] Primers used comprised certain restriction sites that were used for following cloning of PCR products into pEGFP-Tub plasmid (Clontech) in frame with EGFP. As a result, a PH domain fusion with EGFP and triple fusions EGFP-PH-KillerRed and EGFP-PH-DsRed-Express operatively linked with CMV promoter were obtained.
The 293T cell-derived Phoenix Eco cell line was transiently transfected with these constructs. Intracellular localization of PLC delta-1 was evaluated using EGFP signal before and after CALI of the PH domain using confocal and fluorescence microscopy. Fluorescence was monitored using a Leica Confocal Microscope DM IRE2 TCS SP2. […]

CN(C)c1ccc2c(-c3ccccc3C(=O)[O-])c3ccc(N(C)C)cc3[o+]c2c1 [TMRM, tetramethylrhodamine]
cell death (B16 melanoma cells [1]; irradiation for 10 sec, within 1.5 h interval): didn't lead to TMRM-loaded cells' death | time to cell death (B16 melanoma cells [1]; irradiation for 1 min): 30 to 40 min | cell death (B16 melanoma cells [1]; irradiation for 5 minutes or longer): immediate cell death

COC(=O)C[C@H](NC(=O)[C@H](C)NC(=O)[C@@H](NC(=O)OCc1ccccc1)C(C)C)C(=O)CF [zVAD-fmk] (Cbz-Val-Ala-Asp(OMe)-CH2F)
cell survival after identical irradiation (B16 melanoma cells [2]): survived

superoxide dismutase
effect of quencher on CALI of beta-gal (beta-gal [3]): impeded CALI slightly

B1: KillerRed: red fluorescent protein (SEQ ID NO: 4), developed from chromoprotein anm2CP by random mutagenesis; genetically encoded photosensitizer (protein)
chain: EGGPALFQSDMTFKIFIDGEVNGQKFTIVADGSSKFPHGDFNVHAVCETGKLPMSWKPICHLIQYGEPFFARYPNGISHFAQECFPEGLSIDRTVRFENDGTMTSHHTYELDDTCVVSRITVNCDGFQPDGPIMRDQLVDILPNETHMFPHGPDAVRQLAFIGFTTADGGLMMGHFDSKMTFNGSRAIEIPGPHFVTIITKQMRDTSDKRDHVCQREVAYAHSVPRITSAIGSDED
modifications: amino acid sequence for the red fluorescent protein JR18IC+
notes: genetically encoded photosensitizer
phototoxic effect [4]: striking phototoxic effect; also recorded: most strongly expressed | bacteria killed ([4]; after 1 hour irradiation with white light): 99.95% | cells killed ([5]; after 10 minutes of irradiation with white light): 96% | cells killed ([5]; after 20 minutes of irradiation with white light): ~100% | cell killing effect (E. coli; blue light irradiation (FITC filter set)): weak effect | cell killing effect (E. coli; green light irradiation (TRITC filter set)): strong cell killing effect | Mortality of irradiated cells (293T human kidney cells; green light 10 min, 535-575 nm, 5.8 W/cm2, depending on protein concentration): 40-60% | fate of irradiated cell (293T human kidney cells; highly expressing cell, post irradiation with green light 10 min): disintegrated within an hour and a half | effect of irradiation on enzyme activity (beta-gal [6]): no effect | CALI of the PH domain [7]: no detectable CALI

B2: anm2CP: wild type Anthomedusae chromoprotein (SEQ ID NOs: 9 and 10) (protein)
chain: MEGGPALFQSDMTFKIFIDGVVNDQKFTIIADGSSKFPHGDFNVHAVCETGKLPMSWKPICHLIQYGEPFFAKYPNGISHFAQECFPEGLTIDRTVRFENDGTMTSHHTYELDGTCVISRITVNCDGFQPDGPIMKDQLVDILPTETHMFPHGSNAVRQLCYIGFTTADGGLMMSHFDSKLTFNGSRAIKIPGPHFVTVIIKQMKDTSDKRDHVCQREVTYAHSVPRITSAI
modifications: hydromedusa 2 from sub-order Anthomedusae
phototoxic effect [4]: not phototoxic

B3: S3-2 (protein)
chain: EGGPALFQSDMTFKIFIDGVVNGQKFTIVADGSSKFPHGDFNVHAVCETGKLPMSWKPICHLIQYGEPFFARYPNGISHFAQECFPEGLSIDRTVRFENDGTMTSHHTYELDGTCVVSRITVNCDGFQPDGPIMRDQLVDILPNETHMFPHGPNAVRQLAFIGFTTADGGLMMSHFDSKMTFNGSRAIKIPGPHFVTTITKQMKDTSDKRDHVCQREVTYAHSVPRITSAI
modifications: amino acid sequence for the red fluorescent protein S3-2
phototoxic effect [4]: phototoxic
